# Measured values published in publication PMC7357788, “Overlapping functions and protein-protein interactions of LRR-extensins in Arabidopsis” (PLoS Genetics, 2020).
# System: FER^ECD
# Assay: Yeast-two-hybrid LRX LRR domain-FER^ECD
# Format: binding, Arabidopsis thaliana
# Conditions: Y2H, yeast strain PJ69-4A, LRR domains, -Trp, Leu, His, Ade drop-out medium containing 5 mM 3-AT
# Source text: The BD-LRX4 and AD-FER^ECD constructs for the Yeast-two-hybrid experiment were cloned as previously described, where NtermFER equals AD-FER^ECD and LRR4 equals BD-LRX4. For the BD-LRX1/2/3/5 constructs, the coding sequence of the LRR domain of the LRXs was amplified using primers (S3 Table) to introduce a BamHI and a XhoI site at the 5’ and 3’ end of the PCR fragments, respectively. These were cloned into pJET1.2 (Thermo Scientific) and correct clones were cut with BamHI and XhoI and ligated into pGBKT7 cut with BamHI and SalI. The AD-RALF1 construct was cloned into pJET1.2 (Thermo Scientific) by amplification of the coding sequence with the primers y2h_RALF1_F and y2h_RALF1_R. A correct clone was cut with EcoRI and XmaI and ligated into pGADT7 cut with EcoRI and XmaI.
# Transformation of the yeast strain PJ69-4A [63] was done following standard procedures and quadruple drop-out medium lacking Leu, Trp, His, and Ade were used to screen for positive interactions after 4 days incubation at 30°C. Three different colonies containing both vectors were mixed and plated in triplicates on quadruple drop-out medium.
# Supplementary file pgen.1008847.s001.pdf: S1 Fig Interaction of LRXs and FER in yeast-two-hybrid assays. […]
molecule,measurement,value
"LRX2: LRR domain of LRX2 (BD-LRX2), gene At1g62440 (protein, left off: Gal4 DNA-binding domain (from the vector pGBKT7), end not stated, kept, LRR domain of LRX2 (BD-LRX2), gene At1g62440) MLLFPSTSLRLFFFLFLLFSSCFLQIRGDDDDDDISDDNIKVDPSLKFENPSLRQAYIALQSWKQAIFSDPFNFTANWNGSDVCSYNGIFCAPSPSSPKTRVVAGIDLNHADMAGYLPRELGLLTDLALFHLNSNRFCGEVPLTFKHMKLLFELDLSNNRFVGKFPNVVLSLPSLKFLDLRYNEFEGSIPSKLFDKELDAIFLNHNRFMFGIPENMGNSPVSALVLADNDLGGCIPGSIGLMGKTLNEIILSNDNLTGCLPPQIGNLKNVTVFDISFNRLSGPLPSSIGNMKSLEQLNVANNRFTGVIPSSICQLSNLENFTYSSNFFTGDAPRCVALLGDNVVVNGSMNCIDGKEDQRSSKECSSPASRSVDCSKFGCNNFFSPPPPSFKMSPTVRVLPPPPPSSKMSPTFRATPPPPSSKMSPSFRATPPPPSSKMSPSFRATPPPPSSKMSPSVKAYPPPPPPPEYEPSPPPPSSEMSPSVRAYPPPPPLSPPPPSPPPPYIYSSPPPPSPSPPPPYIYSSPPPVVNCPPTTQSPPPPKYEQTPSPREYYPSPSPPYYQYTSSPPPPTYYATQSPPPPPPPTYYAVQSPPPPPPVYYPPVTASPPPPPVYYTPVIQSPPPPPVYYSPVTQSPPPPPPVYYPPVTQSPPPSPVYYPPVTQSPPPPPVYYLPVTQSPPPPSPVYYPPVAKSPPPPSPVYYPPVTQSPPPPSTPVEYHPPASPNQSPPPEYQSPPPKGCNDSPSNDHHYQTPTPPSLPPPYYEDTPLPPIRGVSYASPPPPSIPYY",interaction with FER^ECD,showed interaction with FER^ECD
